Earlier results on 1 substance are cited in article PMC8985225.

This data set has as its target CaMKII kinase domain (Caenorhabditis elegans) (UniProt O62305).

For orientation: Kd means the constant that tells how readily two partners part at equilibrium. On to “CaMKII kinase domain (from UniProt O62305)”, for which the Kd was over 100 µM.
